Reference: publication PMC2615049

Tests used:
[1] = target: Bovine cationic trypsin (bovine); test: equilibrium titration with spectrophotometric assay of residual free trypsin
[2] = target: Bovine cationic trypsin (bovine); test: ITC

Substance	Kd [1] [nM]	dH (enthalpy of dissociation, ΔHd, at 25 °C, HEPES buffer) [2] [kcal/mol]
C14S BPTI variant (natural protein)	0.17	
C14S/C38S BPTI variant (natural protein)		10.6
